The values that follow are results of earlier work, collected in publication PMC9163320.

As a reminder, the pKa is the pH at which an ionisable group is half protonated.

The target of the series is Asp303 (UniProt position 303, VILFMDRNLEQ). Put plainly: NMR. The settings on record: folded Hint domain; no ligand stated.

On to “Hedgehog protein, Hint domain of HhC, C258A mutant (Drosophila melanogaster; C258A)”, for which the pKa was 4.2. Regarding “Hedgehog protein, Hint domain of the C-terminal autoprocessing domain (HhC) (Drosophila melanogaster)”, the pKa was 5.6.
